The numbers were not newly measured in article PMC12114883, which cites them from elsewhere.

In this series the target is CLV1 (Arabidopsis thaliana) (UniProt Q9SYQ8).
Chain of UniProt Q9SYQ8 (Q9SYQ8 25-638): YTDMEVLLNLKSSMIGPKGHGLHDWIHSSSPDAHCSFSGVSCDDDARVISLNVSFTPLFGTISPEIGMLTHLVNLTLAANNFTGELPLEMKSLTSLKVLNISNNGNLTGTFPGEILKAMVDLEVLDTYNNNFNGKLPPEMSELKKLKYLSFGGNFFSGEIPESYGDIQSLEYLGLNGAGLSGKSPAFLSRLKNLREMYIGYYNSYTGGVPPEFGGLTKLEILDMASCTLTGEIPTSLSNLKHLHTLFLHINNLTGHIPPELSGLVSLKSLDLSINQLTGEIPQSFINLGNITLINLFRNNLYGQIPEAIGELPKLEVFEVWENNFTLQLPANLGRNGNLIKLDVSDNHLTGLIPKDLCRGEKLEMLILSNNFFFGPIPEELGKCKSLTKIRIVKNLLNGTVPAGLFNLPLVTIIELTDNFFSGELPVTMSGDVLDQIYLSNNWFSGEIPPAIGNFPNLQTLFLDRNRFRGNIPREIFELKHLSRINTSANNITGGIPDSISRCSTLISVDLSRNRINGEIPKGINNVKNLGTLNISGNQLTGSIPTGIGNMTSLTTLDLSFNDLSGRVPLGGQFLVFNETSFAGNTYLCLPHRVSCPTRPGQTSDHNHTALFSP

For orientation: Kd means the free concentration of one partner at which half of the binding sites on the other are occupied at equilibrium, for simple one-to-one binding. Take CLV3 (from UniProt Q9XF04): the Kd is 17.5 nM.
